Test results: the supplement of paper PMC9112550, “Optimization of the antimicrobial peptide Bac7 by deep mutational scanning” (BMC Biology, 2022)

Tested on: Escherichia coli TOP10
Assay: shrunken log2 fold change of peptide-encoding DNA abundance (4.5 h post-induction vs induction); higher = less antimicrobial activity (less host growth inhibition)
Details: time post-induction: 4.5 h; library: site-saturation at positions 5, 18, 19, 20
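Further: peptides expressed intracellularly from a pBAD plasmid library in pooled LB shake-flask culture, induced with 0.3% L-arabinose, DNA abundance read by NGS, three biological replicates, DESeq2 with apeglm shrinkage.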

Sequence | shrunken log2 fold change
RRIRKRPPRLPRPRPRPRWYPRP | 0.275
RRIRKRPPRLPRPRPRPRYCPRP | -0.142
RRIRKRPPRLPRPRPRPRYHPRP | -0.17
RRIRKRPPRLPRPRPRPRYIPRP | -0.268
RRIRKRPPRLPRPRPRPRYQPRP | -0.0143
RRIRKRPPRLPRPRPRPSAAPRP | 0.624
RRIRKRPPRLPRPRPRPSCEPRP | 0.401
RRIRKRPPRLPRPRPRPSCKPRP | 0.034
RRIRKRPPRLPRPRPRPSCQPRP | 0.176
RRIRKRPPRLPRPRPRPSDMPRP | 0.0199
RRIRKRPPRLPRPRPRPSELPRP | 0.141
RRIRKRPPRLPRPRPRPSFNPRP | 0.0137
RRIRKRPPRLPRPRPRPSFQPRP | 0.0564
RRIRKRPPRLPRPRPRPSGDPRP | 0.485
RRIRKRPPRLPRPRPRPSGKPRP | -0.424
RRIRKRPPRLPRPRPRPSHQPRP | -0.146
RRIRKRPPRLPRPRPRPSKAPRP | -0.0406
RRIRKRPPRLPRPRPRPSKEPRP | 0.0111
RRIRKRPPRLPRPRPRPSLCPRP | -0.239
RRIRKRPPRLPRPRPRPSMHPRP | 0.401
RRIRKRPPRLPRPRPRPSMLPRP | -0.0569
RRIRKRPPRLPRPRPRPSMVPRP | -0.13
RRIRKRPPRLPRPRPRPSNNPRP | -0.0375
RRIRKRPPRLPRPRPRPSQSPRP | 0.28
RRIRKRPPRLPRPRPRPSRAPRP | 0.521

Sequence | shrunken log2 fold change
RRIRKRPPRLPRPRPRPSRDPRP | 0.0856
RRIRKRPPRLPRPRPRPSSNPRP | -0.0818
RRIRKRPPRLPRPRPRPSTKPRP | 0.143
RRIRKRPPRLPRPRPRPSTYPRP | -0.0529
RRIRKRPPRLPRPRPRPSWAPRP | 0.186
RRIRKRPPRLPRPRPRPSYFPRP | -0.029
RRIRKRPPRLPRPRPRPSYPPRP | -0.435
RRIRKRPPRLPRPRPRPSYYPRP | -0.983
RRIRKRPPRLPRPRPRPTADPRP | 0.345
RRIRKRPPRLPRPRPRPTCAPRP | 0.786
RRIRKRPPRLPRPRPRPTCKPRP | 0.347
RRIRKRPPRLPRPRPRPTDIPRP | -0.0678
RRIRKRPPRLPRPRPRPTFGPRP | 0.0674
RRIRKRPPRLPRPRPRPTFPPRP | 0.0736
RRIRKRPPRLPRPRPRPTGCPRP | 0.0439
RRIRKRPPRLPRPRPRPTHIPRP | 0.328
RRIRKRPPRLPRPRPRPTHQPRP | 0.612
RRIRKRPPRLPRPRPRPTIFPRP | 0.2
RRIRKRPPRLPRPRPRPTILPRP | -0.0105
RRIRKRPPRLPRPRPRPTKDPRP | 0.522
RRIRKRPPRLPRPRPRPTLDPRP | 0.877
RRIRKRPPRLPRPRPRPTMFPRP | 0.165
RRIRKRPPRLPRPRPRPTNDPRP | 0.191
RRIRKRPPRLPRPRPRPTPSPRP | 0.921
RRIRKRPPRLPRPRPRPTRLPRP | 0.537

Sequence | shrunken log2 fold change
RRIRKRPPRLPRPRPRPTRMPRP | 0.651
RRIRKRPPRLPRPRPRPTSDPRP | 0.492
RRIRKRPPRLPRPRPRPTTPPRP | 0.427
RRIRKRPPRLPRPRPRPTWIPRP | 0.00938
RRIRKRPPRLPRPRPRPTWYPRP | -0.0991
RRIRKRPPRLPRPRPRPVACPRP | -0.0228
RRIRKRPPRLPRPRPRPVAYPRP | -0.109
RRIRKRPPRLPRPRPRPVCGPRP | 0.62
RRIRKRPPRLPRPRPRPVCIPRP | 0.0558
RRIRKRPPRLPRPRPRPVEIPRP | 0.0372
RRIRKRPPRLPRPRPRPVFVPRP | 0.141
RRIRKRPPRLPRPRPRPVHKPRP | 0.288
RRIRKRPPRLPRPRPRPVHRPRP | -0.0578
RRIRKRPPRLPRPRPRPVILPRP | -0.612
RRIRKRPPRLPRPRPRPVLYPRP | -0.0796
RRIRKRPPRLPRPRPRPVMVPRP | 0.315
RRIRKRPPRLPRPRPRPVMYPRP | -0.144
RRIRKRPPRLPRPRPRPVNCPRP | -0.112
RRIRKRPPRLPRPRPRPVNDPRP | 0.00208
RRIRKRPPRLPRPRPRPVNIPRP | -0.0139
RRIRKRPPRLPRPRPRPVNQPRP | -0.145
RRIRKRPPRLPRPRPRPVPWPRP | 0.572
RRIRKRPPRLPRPRPRPVRQPRP | -0.0361
RRIRKRPPRLPRPRPRPVSCPRP | 0.129
RRIRKRPPRLPRPRPRPVTPPRP | 0.307
